{
  "source": "patent US20200095338A1",
  "binders": {"B1": {"name": "anti-IL-4R:anti-CD63 conjugate (streptavidin-conjugated anti-IL-4R antibody combined 1:1 with biotinylated anti-CD63 antibody MEM-259) (bispecific antibody, part only; not given: anti-CD63 MEM-259 antibody, constant regions, V domains shown, part only)", "VH": "EVQLVESGGGVVQPGRSLRLSCVASGFTFSDYGMHWVRQAPGKGLEWVAVIWYDGSIKYFRDSVKGRFTISRDNSKNTLYLQMNSLRVEDTAHYYCAKESSSWYFYHGLDVWGQGTMVTVSS", "VL": "EIVMTQSPLSLPVSPGEPASISCRSNQSLLHSNGNNYLAWYLQKPGQSPHLLIYLGSNRASGVPDRFSGSGSGTDFTLKISRVEAGDVGTYFCMQSLQAPPFTFGPGTKVEIKR", "modifications": "antibody conjugated to streptavidin"}},
  "target": "IL-4R (interleukin-4 receptor) (UniProt P24394)",
  "sequence (P24394 26-825 limits assumed)": "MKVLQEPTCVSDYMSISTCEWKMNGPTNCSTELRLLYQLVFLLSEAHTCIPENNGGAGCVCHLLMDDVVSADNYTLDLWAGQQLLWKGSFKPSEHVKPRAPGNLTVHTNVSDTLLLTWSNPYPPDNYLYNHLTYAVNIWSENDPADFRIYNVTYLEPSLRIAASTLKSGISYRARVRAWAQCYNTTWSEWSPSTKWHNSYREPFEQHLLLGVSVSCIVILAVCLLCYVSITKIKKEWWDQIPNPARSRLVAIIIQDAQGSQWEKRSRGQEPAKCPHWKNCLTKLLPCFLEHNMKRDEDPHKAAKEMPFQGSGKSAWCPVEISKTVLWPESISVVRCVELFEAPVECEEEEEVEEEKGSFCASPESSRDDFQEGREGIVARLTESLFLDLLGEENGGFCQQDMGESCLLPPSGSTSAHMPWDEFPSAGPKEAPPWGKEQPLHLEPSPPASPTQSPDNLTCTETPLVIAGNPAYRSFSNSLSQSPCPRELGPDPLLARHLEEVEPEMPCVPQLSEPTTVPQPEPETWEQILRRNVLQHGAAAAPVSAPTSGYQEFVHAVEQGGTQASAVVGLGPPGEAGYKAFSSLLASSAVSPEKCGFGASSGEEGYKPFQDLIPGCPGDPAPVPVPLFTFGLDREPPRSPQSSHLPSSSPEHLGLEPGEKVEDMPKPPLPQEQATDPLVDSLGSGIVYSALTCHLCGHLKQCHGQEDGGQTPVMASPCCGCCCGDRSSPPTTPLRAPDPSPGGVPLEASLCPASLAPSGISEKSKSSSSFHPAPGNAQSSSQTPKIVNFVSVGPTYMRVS",
  "test": "cell-based or functional assay",
  "data": [
    {"binder": "B1", "values": [
      {"measurement": "attenuation of IL-4R activity relative to the control constructs", "result": "> 10", "unit": "%"}
    ]}
  ]
}
